According to patent US20230088461A1 (NANJING LEGEND BIOTECH, published 2023):
Where two headings read alike, the source gives them in different places.

Legend:
[1] = target: T1, mouse GPC3 on SK-HEP-1-muGPC3 cells (mouse, UniProt Q8CFZ4 25-553); test: flow cytometry on SK-HEP-1-muGPC3 cells, PE anti-mouse IgG Fc; also: test concentration or dose not given here
T1 construct: whole, on cells

[2] = target: T2, cynomolgus monkey GPC3 on SK-HEP-1-cmGPC3 cells (cynomolgus monkey, UniProt A0A2K5VK50 24-553); test: flow cytometry on SK-HEP-1-cmGPC3 cells, PE anti-mouse IgG Fc; also: test concentration or dose not given here
T2 construct: whole, on cells

[3] = target: T3, human GPC3 on SK-HEP-1-huGPC3 cells (human, UniProt P51654 25-554); test: flow cytometry on SK-HEP-1-huGPC3 cells, PE anti-mouse IgG Fc; also: test concentration or dose not given here
T3 construct: whole, on cells

recombinant human GPC3 = target: T4, recombinant human GPC3 (human, UniProt P51654 25-559, limits assumed); test: SPR (Biacore), antibody as ligand, recombinant human GPC3 as analyte, 1:1 Langmuir model
T4 construct: also called hGPC3
Method: The binding kinetics of the antibodies to recombinant human GPC3 were measured by the surface plasmon resonance (SPR) (e.g., Biacore). Binding rate (Kₐ) and dissociation rates (Kd) were calculated using a simple one-to-one Langmuir binding model (Biacore Evaluation Software). The equilibrium dissociation constant (KD) is calculated as the ratio Kd/Kₐ.

[4] = target: T5, GPC3 (analyte of Tables 9 and 10) (UniProt P51654 25-559, limits assumed); test: SPR (Biacore T200), purified antibody captured through Fc, GPC3 as analyte, 1:1 model
Method: (§1) Antibodies were immobilized on the sensor chip through Fc capture method. GPC3 was used as the analyte. The surface was regenerated before the injection of another antibody. The process was repeated until all antibodies are analyzed. The off-rates of antibodies were obtained from fitting the experimental data locally to 1:1 interaction model using the Biacore T200 evaluation software. The data of dissociation (kd) and association (ka) rate constants (KD) were calculated from the ration of kd over ka.

[5] = target: T5, GPC3 (analyte of Tables 9 and 10); test: as above; remark: listed apart in the source
Method: as §1

T1 sequence (Q8CFZ4 25-553 limits assumed): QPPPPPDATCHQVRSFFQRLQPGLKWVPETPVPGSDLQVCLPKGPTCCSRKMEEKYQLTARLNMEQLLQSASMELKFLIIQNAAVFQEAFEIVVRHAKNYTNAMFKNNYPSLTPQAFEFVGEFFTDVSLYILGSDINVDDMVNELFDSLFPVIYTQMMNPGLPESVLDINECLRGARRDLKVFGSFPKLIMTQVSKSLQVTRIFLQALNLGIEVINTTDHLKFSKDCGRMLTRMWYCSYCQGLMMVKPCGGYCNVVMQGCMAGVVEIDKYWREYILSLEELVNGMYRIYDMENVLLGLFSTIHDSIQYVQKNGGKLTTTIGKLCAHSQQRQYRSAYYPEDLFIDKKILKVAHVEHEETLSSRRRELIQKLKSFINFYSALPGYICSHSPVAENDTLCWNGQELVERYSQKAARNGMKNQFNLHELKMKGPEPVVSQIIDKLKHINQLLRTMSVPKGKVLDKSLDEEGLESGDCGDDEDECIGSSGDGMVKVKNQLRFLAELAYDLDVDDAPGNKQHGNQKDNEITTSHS

| Positive population, % [1] | Positive population, % [2] | Positive population, % [3] | Kd (recombinant human GPC3) | koff (recombinant human GPC3) | kon (recombinant human GPC3) | Kd [4] | koff [4] | kon [4] | Kd [5] | koff [5] | kon [5] | Binder |
| --- | --- | --- | --- | --- | --- | --- | --- | --- | --- | --- | --- | --- |
| 17.5% | 18.5% | 72.6% | 122 nM | 0.00207 s⁻¹ | 16900 M⁻¹ s⁻¹ | – | – | – | – | – | – | LAb19301 (antibody, V domains shown, Mouse monoclonal antibody purified from hybridoma supernatant) VH: DVQLQESGPDLVKPSQSLSLTCTVTGYSITSGFSWHWIRQFPGHKLEWMGFMQYSGNTNYNPSLKSRISFTRDTSKNQFFLQLKSVTPEDTATYYCARREEGAWFAYWGQGTLVTVSA VL: DVVMTQTPLSLPVSLGDQASISCGSSQSLVHSNGNTYLHWYLQKPGQSPKLLIYKVSNRFSGVPDRFSGSGSGTDFTLKISRVEAEDLGVYFCSQSTHFPFTFGSGTKLEIK |
| 75.8% | 3.32% | 86.2% | 28.4 nM | 0.00077 s⁻¹ | 27100 M⁻¹ s⁻¹ | – | – | – | – | – | – | LAb19306 (antibody, V domains shown, Mouse monoclonal antibody purified from hybridoma supernatant) VH: EVQLVESGGGLVKPGGSLKLSCAASGFAFSTYDMSWVRQTPERRLEWVAYISSGGATTYYPDSVKGRFTISRDNAKNTLYLQMSSLKSEDTAMYYCARLSLMIRGWFAYWGQGTLVTVSA VL: DVVMTQTPLSLPVSLGDQASISCRSSQSLVHSNGNTYLHWYLQKPGQSPKLLIYKVSNRFSGVPDRFSGSGSGTDFTLKISRVEAEDLGVYFCSQSTHVPYTFGGGTKLEIK |
| 83.3% | 11.6% | 92.9% | 58.7 nM | 0.00178 s⁻¹ | 30200 M⁻¹ s⁻¹ | – | – | – | – | – | – | LAb19307 (antibody, V domains shown, Mouse monoclonal antibody purified from hybridoma supernatant) VH: EVQLVESGGDLVKPGGSLKLSCAASGFAFGTYDMSWVRQTPEKRLEWVAYISSGGNSPYYPQTVKGRFTISRDNAKNTLYLQMSSLKSEDTAMYYCARQNIARRGAMDFWGQGASVTVSS VL: DVVLTQSPLSQPVSLGDQASISCTSSQSLLHSNGNTYLHWYLQKPGQSPKLLIYKVSNRFSGVPDRFSGSGSGTDFTLKISRVEAEDLGVYFCSQSTHVPPTFGGGTKLEIK |
| 82.4% | 9.55% | 91.4% | 41.4 nM | 0.00102 s⁻¹ | 24700 M⁻¹ s⁻¹ | – | – | – | – | – | – | LAb19308 (antibody, V domains shown, Mouse monoclonal antibody purified from hybridoma supernatant) VH: EVQLVESGGGLVKPGGSLKLSCAASGFAFITYGMSWVRQTPEKRLEWVAYISSGGANTYYPDSVKGRFTISRDNAKNTLYLQMSSLKSEDTAMYYCASLSTLVRGWFAYWGQGTLVTVSA VL: DVVMTQTPLSLPVSLGDQASISCRSSQSLVHSNGNTYLHWYLQKPGQSPKLLIYKVSNRFSGVPDRFSGSGSGTDFTLKISRVEAEDLGVYFCSQSTHVPYTFGGGTKLEIK |
| 81.8% | 12.3% | 91.5% | 71.2 nM | 0.00184 s⁻¹ | 25800 M⁻¹ s⁻¹ | – | – | – | – | – | – | LAb19302 (antibody, V domains shown, Mouse monoclonal antibody purified from hybridoma supernatant) VH: AVQLVESGGGLVRPGGSLKLSCAASGFAFSTYGMSWVRQTPETRLEWVAYISSGGATTYYPDSVKGRFTISRDNAKNTLYLQMSSLKSEDTAMYYCASLSIMIRGWFAYWGQGTLVTVSA VL: DVVMTQTPLSLPVSLGDQASISCRSSQSLVHSNGNTYLHWYLQKPGQSPKVLIYKVSNRFSGVPDRFSGSGSGTDFTLKISRVEAEDLGVYFCSQSTHVPYTFGGGTKLEIK |
| – | – | – | – | – | – | 3.56 nM | 0.000239 s⁻¹ | 67100 M⁻¹ s⁻¹ | – | – | – | Chimeric LAb19309-hIgG1 (antibody, V domains shown, The mouse VH/VL numbers follow the parallel order of the lists, as for LAb19309) VH: QVQLQQSGAELVRPGASVTLSCKASGYTFTDYEMHWVKQTPVHGLEWIGGIDPETGNTAYSQKFKGKATLTADKSSSTAYMEVRSLTSEDSAVYYCTRYYSFAYWGQGTLVTVSA VL: DVLMTQTPLSLPVNLGDQASISCRSSQTIVHSNGNTYLEWYLQKPGQSPKLLIYKVSNRFSGVPDRFSGSGSGTDFTLRISRVEAEDLGVYYCFQVSHVPYTFGGGTKLEIKR |
| 0.72% | – | – | – | – | – | – | – | – | – | – | – | LAb19303 (antibody, V domains shown, Mouse monoclonal antibody purified from hybridoma supernatant) VH: QVQLQQSGAELVRPGASVTLSCEASGYTFNDYEMHWVKQTPVHGLEWIGAIDPETGATAYNQKFKGKATLTADKSSSTAYMELRSLTSEDTAVYYCTRYYSFAYWGQGTLVTVSA VL: DVLMTQTPLSLPVSLGDQASISCRSSQSFVHSNGNTYLQWYLQKPGQSPKLLIYKVSNRFSGVPDRFSGSGSGTDFTLKISRVEAEDLGVYYCFQGSHVPYTFGGGTKLEIK |
| 25.6% | 94.6% | 91.9% | 5.11 nM | 0.000138 s⁻¹ | 27000 M⁻¹ s⁻¹ | – | – | – | – | – | – | LAb19304 (antibody, V domains shown, Mouse monoclonal antibody purified from hybridoma supernatant) VH: QVQLQQSGAELVRPGASVTLSCKASGYTFTAYEMHWVKQTPVHGLEWIGGIDPETGNTAYSQKFKGKATLTADKSSSTAYMEVRSLTSEDSAVYYCSRYYSFAYWGQGTLVTVSA VL: DVLMTQTPLSLPVSLGDQASISCRSSQTIVHSNGNTYLEWYLQKPGQSPKLLIYKVSNRFSGVPDRFSGSGSGTDFTLKISRVEAEDLGVYYCFQVSHVPYTFGGGTKLEIK |
| 1.02% | 91.9% | 92.7% | 8.38 nM | 0.000195 s⁻¹ | 23300 M⁻¹ s⁻¹ | – | – | – | – | – | – | LAb19309 (antibody, V domains shown, Mouse monoclonal antibody purified from hybridoma supernatant) VH: QVQLQQSGAELVRPGASVTLSCKASGYTFTDYEMHWVKQTPVHGLEWIGGIDPETGNTAYSQKFKGKATLTADKSSSTAYMEVRSLTSEDSAVYYCTRYYSFAYWGQGTLVTVSA VL: DVLMTQTPLSLPVNLGDQASISCRSSQTIVHSNGNTYLEWYLQKPGQSPKLLIYKVSNRFSGVPDRFSGSGSGTDFTLRISRVEAEDLGVYYCFQVSHVPYTFGGGTKLEIK |
| 17% | 94.2% | 92.6% | 4.19 nM | 0.00013 s⁻¹ | 31100 M⁻¹ s⁻¹ | – | – | – | – | – | – | LAb19305 (antibody, V domains shown, Mouse monoclonal antibody purified from hybridoma supernatant) VH: QVQLQQSGAELVRPGASVTLSCKASGYTFTAYEMHWVKQTPVYGLEWIGGIDPETGNTAYSQNFKGKATLTADKSSSTAYMEVRSLTSEDSAVYYCSRYYSFAYWGQGTLVTVSA VL: DVLMTQTPLSLPVSLGDQASISCRSSQTIVHSNGNTYLEWYLQKPGQSPKLLIYKVSNRFSGVPDRFSGSGSGTDFTLKISRVEAEDLGVYYCFQVSHVPYTFGGGTKLEIK |
| – | – | – | – | – | – | – | – | – | 0.84 nM | 0.000103 s⁻¹ | 123000 M⁻¹ s⁻¹ | Chimeric LAb19305-hIgG1 (antibody, V domains shown, The mouse VH/VL numbers follow the parallel order of the lists, as for LAb19305) VH: QVQLQQSGAELVRPGASVTLSCKASGYTFTAYEMHWVKQTPVYGLEWIGGIDPETGNTAYSQNFKGKATLTADKSSSTAYMEVRSLTSEDSAVYYCSRYYSFAYWGQGTLVTVSA VL: DVLMTQTPLSLPVSLGDQASISCRSSQTIVHSNGNTYLEWYLQKPGQSPKLLIYKVSNRFSGVPDRFSGSGSGTDFTLKISRVEAEDLGVYYCFQVSHVPYTFGGGTKLEIKR |
| – | – | – | – | – | – | 1.53 nM | 0.00014 s⁻¹ | 91300 M⁻¹ s⁻¹ | – | – | – | 9VH1VL3-hIgG1 (antibody, V domains shown, Humanized LAb19309, full-length human IgG1/kappa; also called 9VH1VL3-hIgG1 mAb) VH: QVQLVQSGAEVKKPGASVKVSCKASGYTFTDYEMHWVRQAPGQRLEWMGGIDPETGNTAYSQKFKGRVTITRDTSASTAYMELSSLRSEDTAVYYCARYYSFAYWGQGTLVTVSS VL: DIVMTQSPDSLAVSLGERATINCRSSQTIVHSNGNTYLEWYQQKPGQPPKLLIYKVSNRFSGVPDRFSGSGSGTDFTLTISSLQAEDVAVYYCFQVSHVPYTFGGGTKLEIKR |
| – | – | – | – | – | – | – | – | – | 0.572 nM | 8.91e-05 s⁻¹ | 156000 M⁻¹ s⁻¹ | 5VH2VL2-hIgG1 (antibody, V domains shown, Humanized LAb19305, full-length human IgG1/kappa) VH: QVQLVQSGAEVKKPGASVKVSCKASGYTFTAYEMHWVRQAPGQGLEWMGGIDPETGNTAYSQNFKGRVTMTRDTSTSTVYMELSSLRSEDTAVYYCARYYSFAYWGQGTLVTVSS VL: DIVMTQSPLSLPVTPGEPASISCRSSQTIVHSNGNTYLEWYLQKPGQSPQLLIYKVSNRFSGVPDRFSGSGSGTDFTLKISRVEAEDVGVYYCFQVSHVPYTFGGGTKLEIKR |
| – | – | – | – | – | – | – | – | – | 0.544 nM | 8.76e-05 s⁻¹ | 161000 M⁻¹ s⁻¹ | 5VH2VL3-hIgG1 (antibody, V domains shown, Humanized LAb19305, full-length human IgG1/kappa) VH: QVQLVQSGAEVKKPGASVKVSCKASGYTFTAYEMHWVRQAPGQGLEWMGGIDPETGNTAYSQNFKGRVTMTRDTSTSTVYMELSSLRSEDTAVYYCARYYSFAYWGQGTLVTVSS VL: DIVMTQSPDSLAVSLGERATINCRSSQTIVHSNGNTYLEWYQQKPGQPPKLLIYKVSNRFSGVPDRFSGSGSGTDFTLTISSLQAEDVAVYYCFQVSHVPYTFGGGTKLEIKR |
| – | – | – | – | – | – | 1.13 nM | 0.000145 s⁻¹ | 129000 M⁻¹ s⁻¹ | – | – | – | 9VH3VL3-hIgG1 (antibody, V domains shown, Humanized LAb19309, full-length human IgG1/kappa) VH: QVQLVQSGAEVKKPGASVKVSCKASGYTFTDYEMHWVRQATGQGLEWMGGIDPETGNTAYSQKFKGRVTMTRNTSISTAYMELSSLRSEDTAVYYCARYYSFAYWGQGTLVTVSS VL: DIVMTQSPDSLAVSLGERATINCRSSQTIVHSNGNTYLEWYQQKPGQPPKLLIYKVSNRFSGVPDRFSGSGSGTDFTLTISSLQAEDVAVYYCFQVSHVPYTFGGGTKLEIKR |
| – | – | – | – | – | – | – | – | – | 1.1 nM | 0.000117 s⁻¹ | 107000 M⁻¹ s⁻¹ | 5VH1VL2-hIgG1 (antibody, V domains shown, Humanized LAb19305, full-length human IgG1/kappa) VH: QVQLVQSGAEVKKPGASVKVSCKASGYTFTAYEMHWVRQAPGQRLEWMGGIDPETGNTAYSQNFKGRVTITRDTSASTAYMELSSLRSEDTAVYYCARYYSFAYWGQGTLVTVSS VL: DIVMTQSPLSLPVTPGEPASISCRSSQTIVHSNGNTYLEWYLQKPGQSPQLLIYKVSNRFSGVPDRFSGSGSGTDFTLKISRVEAEDVGVYYCFQVSHVPYTFGGGTKLEIKR |
| – | – | – | – | – | – | 0.672 nM | 9.01e-05 s⁻¹ | 134000 M⁻¹ s⁻¹ | – | – | – | 9VH3VL2-hIgG1 (antibody, V domains shown, Humanized LAb19309, full-length human IgG1/kappa; also called 9VH3VL2-hIgG1 mAb) VH: QVQLVQSGAEVKKPGASVKVSCKASGYTFTDYEMHWVRQATGQGLEWMGGIDPETGNTAYSQKFKGRVTMTRNTSISTAYMELSSLRSEDTAVYYCARYYSFAYWGQGTLVTVSS VL: DIVMTQSPLSLPVTPGEPASISCRSSQTIVHSNGNTYLEWYLQKPGQSPQLLIYKVSNRFSGVPDRFSGSGSGTDFTLKISRVEAEDVGVYYCFQVSHVPYTFGGGTKLEIKR |
